The conditions of series [1]: mouse, in vivo.
Description: Histology of myocardia from treated mice. Micrographs show representative H&E stained specimens from treated mice.
Female immunodeficient (nu/nu) mice (6-8 weeks; Charles River Laboratories International, Wilmington, MA, USA) received subcutaneous bilateral flank injections of 1×10^7 indicated cells and monitored until tumors reached ˜200-300 mm3, at which point the following treatments were initiated. […] To assess therapeutic efficacy, a new group of tumor-bearing mice received daily i.v. (tail vein) injections of HerDox or Dox at indicated doses for 7 days followed by continued monitoring of tumor volumes (assessed by measuring tumor length and width using calipers, and applying LxW2), animal weights, and heart function. […] Cardiac function in anesthetized mice was evaluated by a Vevo 770 High-Frequency Ultrasound system (VisualSonics, Toronto, Canada). Heart rate and body temperature were monitored. Superficial hair was removed from the region of interest with a depilatory cream (Nair) before imaging. The 2-dimensional guided M-mode images of the left ventricle were obtained in the short-axis view at the papillary level with the mouse in the supine position. All primary measurements were traced manually and digitized by goal-directed software installed within the echocardiograph. Three beats were averaged for each measurement. All measurements were done from leading edge to leading edge according to the American Society of Echocardiography guidelines. At animal study completion, tissue harvested from euthanized mice were fixed in 4% paraformaldehyde/PBS at 4° C. for 24 h followed by transfer into 20% sucrose/PBS and storage at −80° C. before immunohistochemical processing. Specimens and hematoxylin/eosin staining were prepared by AML Laboratories, Inc., Baltimore, MD, USA.
For series [2] the following is noted: mouse, in vivo. The source holds these as a separate data set.
Description: (§1) Control (saline-injected) mice were euthanized early due to tumor ulceration, in compliance with IACUC policy. […] FIG. 30E, TUNEL staining and quantification in liver and kidney tissue obtained from treated mice. Micrographs obtained at 20× magnification (left set of panels) show fluorescently-stained nuclei in apoptotic cells (delineated areas are enlarged in micrographs to the right). Graph summarizes relative fluorescence intensities of each treated tissue (N>200 fields per treatment).
(§2) Fixed, sectioned tissues were processed by incubation in a dry 60° C. oven for 1 h followed by sequential submersion in xylenes for 4 min×5, then hydration in 100%, 95%, 90%, 80%, 70% ethanol for 3 min, 2 times each and final submersion in water. After Proteinase K (20 ug/ml in 10 mM Tris pH 7.8) incubation and rinsing in PBS, sections were treated for TUNEL staining following the manufacturer's instructions (XXX) and assessed by confocal fluorescence imaging. Here, 10 TUNEL images at different locations per tissue were acquired using a Leica confocal SPE microscope (20×, ex: 488 nm, and em: 530 nm). Central regions of each tissue were imaged to avoid fixation artifacts. Nuclear fluorescence intensities, reflective of DNA fragmentation, were measured and averaged using ImageJ.
A short description of series [3]: HerDox stability in storage, ultrafiltration. Type of series: physicochemical. Particulars: 4° C., RT, or 37° C. over a 12 day period. As for the experimental part: FIG. 34A, HerDox stability in different storage conditions. HerDox was incubated at indicated times and temperatures was applied to a 10K mwco ultrafiltration membrane every other day, and retentate and filtrate A480 measured to determine relative Dox retention or release from complexes, respectively. […] FIG. 34B, Assessing stability in serum-containing media by ultrafiltration. HerDox immobilized on Ni-NTA beads (Qiagen Inc., Valencia. CA, USA) by incubation on ice for 2 h with agitation followed by free HerDox removal via bead pelleting/washing in HBS received 10% fetal bovine serum (FBS), to mimic cell culture conditions, and incubated at 37° C. with agitation for the indicated time-points. At each time-point, samples were pelleted and mean A480±SD (N=3) of supernatants (Released) and bead eluates (Retained) were measured. […] Relative Dox release or retention in serum is expressed as normalized to control (corresponding serum-lacking sample). […] Dox fluorescence (top panel) was visualized by UV excitation. […] Dox (1.6 nmoles) was added to serum coated wells and incubated for 30 min at 37° C. with agitation before supernatants were removed and the wells washed once with HBS before fluorescence spectra were measured for pre-incubation sample (Input), supernatant (Free) and wells (Serum-bound). Fluorescence spectra were obtained at Ex 485 nm/Em 520-750 nm with a 515 nm cutoff filter. […]

Series [4] can be described thus: Stability in complete cell culture media. Type of series: in vitro ADME. Particulars: up to 24 h. The procedure:
FIG. 34A, HerDox stability in different storage conditions. HerDox was incubated at indicated times and temperatures was applied to a 10K mwco ultrafiltration membrane every other day, and retentate and filtrate A480 measured to determine relative Dox retention or release from complexes, respectively. […] FIG. 34B, Assessing stability in serum-containing media by ultrafiltration. HerDox immobilized on Ni-NTA beads (Qiagen Inc., Valencia. CA, USA) by incubation on ice for 2 h with agitation followed by free HerDox removal via bead pelleting/washing in HBS received 10% fetal bovine serum (FBS), to mimic cell culture conditions, and incubated at 37° C. with agitation for the indicated time-points. At each time-point, samples were pelleted and mean A480±SD (N=3) of supernatants (Released) and bead eluates (Retained) were measured. […] Relative Dox release or retention in serum is expressed as normalized to control (corresponding serum-lacking sample). […] Dox fluorescence (top panel) was visualized by UV excitation. […] Dox (1.6 nmoles) was added to serum coated wells and incubated for 30 min at 37° C. with agitation before supernatants were removed and the wells washed once with HBS before fluorescence spectra were measured for pre-incubation sample (Input), supernatant (Free) and wells (Serum-bound). Fluorescence spectra were obtained at Ex 485 nm/Em 520-750 nm with a 515 nm cutoff filter.

Series [5] can be described thus: TUNEL staining of liver and kidney tissue of treated mice. Particulars: mouse, in vivo.
Description: as §1, §2
Series [6] in a line: Stability in blood, ultrafiltration. Type of series: in vitro ADME. Conditions: 1 h at 37° C. in mouse blood. The text has this: FIG. 26A. Stability in blood. […] N=3. […] FIG. 26C. Assessing Dox retention in serum.

“Also recorded” adds a separate entry of the source. Where two headings read alike, the source gives them in different places.

Regarding `COc1cccc2c1C(=O)c1c(O)c3c(c(O)c1C2=O)C[C@@](O)(C(=O)CO)C[C@@H]3O[C@H]1C[C@H](N)[C@H](O)[C@H](C)O1.Cl` [Dox, Doxorubicin-HCl, reference compound], the myocardial histology result in series [1] was “myofibrillar degeneration”. Also, the “stroke volume, cardiac output, left ventricular internal dimension and volume” value in series [1] (0.004 mg/kg) is given as “modest to marked reductions”. In series [2], the “apoptosis in the kidney (TUNEL)” value was “Neither Dox nor HerDox showed substantial apoptosis” and the “apoptosis in the liver (TUNEL)” value is “marked apoptosis”.

B1: HerDox: self-assembled nanoparticle of oligonucleotide duplex, doxorubicin and HerPBK10 (conjugate)
chain: LPPRLKEMKSQESAAGSKLVLRCETSSEYSSLRFKWFKNGNELNRKNKPQNIKIQKKPGKSELRINKASLADSGEYMCKVISKLGNDSASANITIVESNEIITGMPASTEGAYVSSESPIRISVSTEGANTSSSTSTSTTGTSHLVKCAEKEKTFCVNGGECFMVKDLSNPSRYLCKCQPGFTGARCTENVPMKVQNQEKAEELYMRRAAMYEEGPPPSYESVVSAAPVAAALGSPFDAPLDPPFVPPRYLRPTGGRNSIRYSELAPLFDTTRVYLVDNKSTDVASLNYQNDHSNFLTTVIQNNDYSPGEASTQTINLDDRSHWGGDLKTILHTNMPNVNEFMFTNKFKARVMVSRLPTKDNQVELKYEWVEFTLPEGNYSETMTIDLMNNAIVEHYLKVGRQNGVLESDIGVKFDTRNFRLGFDPVTGLVMPGVYTNEAFHPDIILLPGCGVDFTHSRLSNLLGIRKRQPFQEGFRITYDDLEGGNIPALLDVDAYQASLKDDTEQGGGGAGGSNSSGSGAEENSNAAAAAMQPVEDMNDHAIRGDTFATRAEEKRAEAEAAAEAAAPAAQPEVEKPQKKPVIKPLTEDSKKRSYNLISNDSTFTQYRSWYLAYNYGDPQTGIRSWTLLCTPDVTCGSEQVYWSLPDMMQDPVTFRSTRQISNFPVVGAELLPVHSKSFYNDQAVYSQLIRQFTSLTHVFNRFPENQILARPPAPTITTVSENVPALTDHGTLPLRNSIGGVQRVTITDARRRTCPYVYKALGIVSPRVLSSRTFKKKKKKKKKK
B1: in series [3], the “Dox release in storage” value is listed as “no detectable Dox release”. Besides, the “loss of Dox in complete cell culture media” value in series [4] was “no loss of Dox from the complex”. Also, in series [5], the “apoptosis in the kidney (TUNEL)” value was “Neither Dox nor HerDox showed substantial apoptosis” and the “apoptosis in the liver (TUNEL)” value is “did not; also recorded: negligible apoptosis”. For the same molecule, in series [6], the “Dox release in blood (filtrate/retentate fluorescence)” value is on record as “no detectable fluorescence in filtrates nor loss from retentates”.
